Assay results reported in patent US20220002427A1 (ENGMAB SARL, published 2022).
Several values for one entry are separate records, joined by “and”; a condition that tells them apart may be missing. Identical values can stand only once.

Key:
human BCMA on cells [1] = target: T1, human BCMA on cells (human, UniProt Q02223 1-184); experiment: cell-based or functional assay
T1 sequence (looked up): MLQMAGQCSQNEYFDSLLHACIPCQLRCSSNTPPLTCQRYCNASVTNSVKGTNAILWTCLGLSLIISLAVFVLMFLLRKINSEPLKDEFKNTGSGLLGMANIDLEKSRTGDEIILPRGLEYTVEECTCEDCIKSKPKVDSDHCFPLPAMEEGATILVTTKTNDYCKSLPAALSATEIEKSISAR

human BCMA on cells [2] = target: T1, human BCMA on cells; experiment: cell-based or functional assay; remark: listed apart in the source
human BCMA on cells [3] = target: T1, human BCMA on cells; experiment: cell-based or functional assay; remark: listed apart in the source
human BCMA on cells [4] = target: T1, human BCMA on cells; experiment: flow cytometry on H929 multiple myeloma cells, PE anti-human Fc F(ab')2 detection; estimated EC50
Method: (§1) Briefly, cultured cells are harvested, counted and cell viability was evaluated using ViCell. Viable cells are then adjusted to 2×10⁶ cells per ml in BSA-containing FACS Stain Buffer (BD Biosciences). 100 μl of this cell suspension were further aliquoted per well into a round-bottom 96-well plate and incubated with 30 μl of the anti-BCMA antibodies or corresponding IgG control for 30 min at 4° c. All Anti-BCMA/anti-CD3 TCB antibodies (and TCB controls) were titrated and analyzed in final concentration range between 1-300 nM. Cells were then centrifuged (5 min, 350×g), washed with 120 μl/well FACS Stain Buffer (BD Biosciences), resuspended and incubated for an additional 30 min at 4° C. with fluorochrome-conjugated PE-conjugated AffiniPure F(ab′)2 Fragment goat anti-human IgG Fc Fragment Specific (Jackson Immuno Research Lab; 109-116-170). Cells were then washed twice with Stain Buffer (BD Biosciences), fixed using 100 ul BD Fixation buffer per well (#BD Biosciences, 554655) at 4° C. for 20 min, resuspended in 120 μl FACS buffer and analyzed using BD FACS CantoII.

human BCMA on cells [5] = target: T1, human BCMA on cells; experiment: cell-based or functional assay; remark: listed apart in the source
human BCMA on cells [6] = target: T1, human BCMA on cells; experiment: cell-based or functional assay; remark: listed apart in the source
human BCMA on cells [7] = target: T1, human BCMA on cells; experiment: flow cytometry on L363 multiple myeloma cells, PE anti-human Fc F(ab')2 detection; estimated EC50
Method: as §1

human BCMA on cells [8] = target: T1, human BCMA on cells; experiment: cell-based or functional assay; remark: listed apart in the source
human BCMA on cells [9] = target: T1, human BCMA on cells; experiment: flow cytometry on RPMI-8226 multiple myeloma cells, PE anti-human Fc F(ab')2 detection; asterisk: extrapolated by Prism
Method: as §1

B1: 83A10-TCBcv (bispecific antibody, human IgG1, kappa, L234A L235A)
heavy 1: not shown
heavy 2: not shown
light 1: not shown
light 2: EVQLLESGGGLVQPGGSLRLSCAASGFTFSTYAMNWVRQAPGKGLEWVSRIRSKYNNYATYYADSVKGRFTISRDDSKNTLYLQMNSLRAEDTAVYYCVRHGNFGNSYVSWFAYWGQGTLVTVSSASVAAPSVFIFPPSDEQLKSGTASVVCLLNNFYPREAKVQWKVDNALQSGNSQESVTEQDSKDSTYSLSSTLTLSKADYEKHKVYACEVTHQGLSSPVTKSFNRGEC
notes: also called anti-BCMA/anti-CD3 T cell bispecific antibody 83A10-TCBcv
Q: With B1 as the binder, how does the “EC50 of redirected T-cell killing of RPMI-8226 cells (LDH release), Donor 2” value (human BCMA on cells [1]) read?
A: 0.621 nM

Q: What about the “EC50 of redirected T-cell killing of RPMI-8226 cells (LDH release), Donor 3” value (human BCMA on cells [1]) of the same binder?
A: 0.229 nM

Q: What about the “EC50 of redirected T-cell killing of RPMI-8226 cells (LDH release), Donor 4” value (human BCMA on cells [1]) of the same binder?
A: 0.035 nM

Q: And the “EC50 of redirected T-cell killing of RPMI-8226 cells (LDH release), Donor 5” value (human BCMA on cells [1])?
A: 0.0649 nM

Q: What about the “Lysis of JJN-3 cells (%) at 0.1 pM TCB, Experiment 2” value (human BCMA on cells [2]) of the same binder?
A: 22.3%

Q: What about the “Lysis of JJN-3 cells (%) at 1 pM TCB, Experiment 1” value (human BCMA on cells [2]) of the same binder?
A: 24.4%

Q: What about the “Lysis of JJN-3 cells (%) at 1 pM TCB, Experiment 2” value (human BCMA on cells [2]) of the same binder?
A: -1.88%

Q: And the “Lysis of JJN-3 cells (%) at 10 pM TCB, Experiment 1” value (human BCMA on cells [2])?
A: 41.9%

Q: What about the “Lysis of JJN-3 cells (%) at 10 pM TCB, Experiment 2” value (human BCMA on cells [2]) of the same binder?
A: 39.6%

Q: And the “Lysis of JJN-3 cells (%) at 100 pM TCB, Experiment 1” value (human BCMA on cells [2])?
A: 18.4%

Q: And the “Lysis of JJN-3 cells (%) at 100 pM TCB, Experiment 2” value (human BCMA on cells [2])?
A: 20.1%

Q: And the “Lysis of JJN-3 cells (%) at 1000 pM TCB, Experiment 1” value (human BCMA on cells [2])?
A: 26.7%

Q: What about the “Lysis of JJN-3 cells (%) at 1000 pM TCB, Experiment 2” value (human BCMA on cells [2]) of the same binder?
A: 25.3%

Q: And the “Lysis of JJN-3 cells (%) at 10000 pM TCB, Experiment 1” value (human BCMA on cells [2])?
A: 70.3%

Q: And the “Lysis of JJN-3 cells (%) at 10000 pM TCB, Experiment 2” value (human BCMA on cells [2])?
A: 51.2%

Q: And the “EC50 of Granzyme B secretion, PBMC plus RPMI-8226 cells (CBA)” value (human BCMA on cells [3])?
A: 0.34 nM

Q: What about the “EC50 of IL-10 secretion, PBMC plus RPMI-8226 cells (CBA)” value (human BCMA on cells [3]) of the same binder?
A: 0.3 nM

Q: And the “EC50 of TNF-α secretion, PBMC plus RPMI-8226 cells (CBA)” value (human BCMA on cells [3])?
A: 0.52 nM

Q: And the EC50 (human BCMA on cells [4])?
A: 12 nM and 1.73 µg/mL

Q: What about the “Annexin-V positive JJN-3 cells (%) at 0.1 pM TCB, Experiment 2” value (human BCMA on cells [5]) of the same binder?
A: 13.1%

Q: What about the “Annexin-V positive JJN-3 cells (%) at 1 pM TCB, Experiment 1” value (human BCMA on cells [5]) of the same binder?
A: 11.4%

Q: And the “Annexin-V positive JJN-3 cells (%) at 1 pM TCB, Experiment 2” value (human BCMA on cells [5])?
A: 14.3%

Q: And the “Annexin-V positive JJN-3 cells (%) at 10 pM TCB, Experiment 1” value (human BCMA on cells [5])?
A: 11.1%

Q: What about the “Annexin-V positive JJN-3 cells (%) at 10 pM TCB, Experiment 2” value (human BCMA on cells [5]) of the same binder?
A: 15.9%

Q: And the “Annexin-V positive JJN-3 cells (%) at 100 pM TCB, Experiment 1” value (human BCMA on cells [5])?
A: 9.12%

Q: What about the “Annexin-V positive JJN-3 cells (%) at 100 pM TCB, Experiment 2” value (human BCMA on cells [5]) of the same binder?
A: 16.5%

Q: And the “Annexin-V positive JJN-3 cells (%) at 1000 pM TCB, Experiment 1” value (human BCMA on cells [5])?
A: 10.2%

Q: What about the “Annexin-V positive JJN-3 cells (%) at 1000 pM TCB, Experiment 2” value (human BCMA on cells [5]) of the same binder?
A: 17.5%

Q: And the “Annexin-V positive JJN-3 cells (%) at 10000 pM TCB, Experiment 1” value (human BCMA on cells [5])?
A: 16.8%

Q: And the “Annexin-V positive JJN-3 cells (%) at 10000 pM TCB, Experiment 2” value (human BCMA on cells [5])?
A: 22.9%

Q: And the “EC50 of redirected T-cell killing of L363 cells (LDH release), Donor 1” value (human BCMA on cells [6])?
A: 0.0168 nM

Q: And the “EC50 of redirected T-cell killing of L363 cells (LDH release), Donor 2” value (human BCMA on cells [6])?
A: 0.0478 nM

Q: What about the “EC50 of redirected T-cell killing of L363 cells (LDH release), Donor 3” value (human BCMA on cells [6]) of the same binder?
A: 0.0284 nM

Q: And the “EC50 of redirected T-cell killing of L363 cells (LDH release), Donor 4” value (human BCMA on cells [6])?
A: 0.0126 nM

Q: What about the “EC50 of redirected T-cell killing of L363 cells (LDH release), Donor 5” value (human BCMA on cells [6]) of the same binder?
A: 0.039 nM

Q: What about the EC50 (human BCMA on cells [7]) of the same binder?
A: 17.4 nM and 2.51 µg/mL

Q: What about the “EC50 of redirected T-cell killing of H929 cells (LDH release), Donor 1” value (human BCMA on cells [8]) of the same binder?
A: 0.0039 nM

Q: What about the “EC50 of redirected T-cell killing of H929 cells (LDH release), Donor 3” value (human BCMA on cells [8]) of the same binder?
A: 0.0085 nM

Q: What about the “EC50 of redirected T-cell killing of H929 cells (LDH release), Donor 4” value (human BCMA on cells [8]) of the same binder?
A: 0.005 nM

Q: And the “EC50 of redirected T-cell killing of H929 cells (LDH release), Donor 5” value (human BCMA on cells [8])?
A: 0.0043 nM

Q: What about the “EC50 of redirected T-cell killing of H929 cells (LDH release), Donor 6” value (human BCMA on cells [8]) of the same binder?
A: 0.0015 nM

Q: And the EC50 (human BCMA on cells [9])?
A: > 300 nM and ~27200 µg/mL
